Measurements taken from patent publication US20100130424A1 (Janssen / Centocor, published 2010).
Values belong to the binder of their own block, whether it stands above or below them. No end group written: not given here. *: point of attachment. Succinimide(1-Et,3-yl) = CCN1C(=O)CC(*)C1=O

Target: T1, human CRH receptor type 2 (human, UniProt Q13324 1-411)
T1 sequence (looked up): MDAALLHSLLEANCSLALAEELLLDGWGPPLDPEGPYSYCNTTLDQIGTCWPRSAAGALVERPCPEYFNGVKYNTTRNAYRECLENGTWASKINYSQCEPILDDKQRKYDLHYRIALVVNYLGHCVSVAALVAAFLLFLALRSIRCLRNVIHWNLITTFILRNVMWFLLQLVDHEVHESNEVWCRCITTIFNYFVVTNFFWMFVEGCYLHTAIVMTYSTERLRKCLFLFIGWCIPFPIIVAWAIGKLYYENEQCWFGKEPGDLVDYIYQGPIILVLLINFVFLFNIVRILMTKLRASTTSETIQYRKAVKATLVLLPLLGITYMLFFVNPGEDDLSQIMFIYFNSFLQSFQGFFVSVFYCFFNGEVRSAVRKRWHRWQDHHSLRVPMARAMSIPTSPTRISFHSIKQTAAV
Test: cell-based or functional assay

B2: Cys-variant of stresscopin peptide with N-Ethylsuccinimide (NES) reactive group, SEQ ID NO: 49 (peptide)
peptide: TKFTLSLDVPTNIMNLLFNIAKAKC(Succinimide(1-Et,3-yl))LRAQAAANAHLMAQI-NH2
modifications: N-terminus assumed
SMILES: CC[C@H](C)[C@H](NC(=O)[C@H](CCC(N)=O)NC(=O)[C@H](C)NC(=O)[C@H](CCSC)NC(=O)[C@H](CC(C)C)NC(=O)[C@H](Cc1c[nH]cn1)NC(=O)[C@H](C)NC(=O)[C@H](CC(N)=O)NC(=O)[C@H](C)NC(=O)[C@H](C)NC(=O)[C@H](C)NC(=O)[C@H](CCC(N)=O)NC(=O)[C@H](C)NC(=O)[C@H](CCCNC(=N)N)NC(=O)[C@H](CC(C)C)NC(=O)[C@H](CSC1CC(=O)N(CC)C1=O)NC(=O)[C@H](CCCCN)NC(=O)[C@H](C)NC(=O)[C@H](CCCCN)NC(=O)[C@H](C)NC(=O)[C@@H](NC(=O)[C@H](CC(N)=O)NC(=O)[C@H](Cc1ccccc1)NC(=O)[C@H](CC(C)C)NC(=O)[C@H](CC(C)C)NC(=O)[C@H](CC(N)=O)NC(=O)[C@H](CCSC)NC(=O)[C@@H](NC(=O)[C@H](CC(N)=O)NC(=O)[C@@H](NC(=O)[C@@H]1CCCN1C(=O)[C@@H](NC(=O)[C@H](CC(=O)O)NC(=O)[C@H](CC(C)C)NC(=O)[C@H](CO)NC(=O)[C@H](CC(C)C)NC(=O)[C@@H](NC(=O)[C@H](Cc1ccccc1)NC(=O)[C@H](CCCCN)NC(=O)[C@@H](N)[C@@H](C)O)[C@@H](C)O)C(C)C)[C@@H](C)O)[C@@H](C)CC)[C@@H](C)CC)C(N)=O
Log DR against h-SCP, cAMP: 0.11 log10 ratio
pA50, cAMP: 9.36 -log M

B5: Cys-variant of stresscopin peptide with N-Ethylsuccinimide (NES) reactive group, SEQ ID NO: 48 (peptide)
peptide: TKFTLSLDVPTNIMNLLFNIAKAKNC(Succinimide(1-Et,3-yl))RAQAAANAHLMAQI-NH2
modifications: N-terminus assumed
SMILES: CC[C@H](C)[C@H](NC(=O)[C@H](CCC(N)=O)NC(=O)[C@H](C)NC(=O)[C@H](CCSC)NC(=O)[C@H](CC(C)C)NC(=O)[C@H](Cc1c[nH]cn1)NC(=O)[C@H](C)NC(=O)[C@H](CC(N)=O)NC(=O)[C@H](C)NC(=O)[C@H](C)NC(=O)[C@H](C)NC(=O)[C@H](CCC(N)=O)NC(=O)[C@H](C)NC(=O)[C@H](CCCNC(=N)N)NC(=O)[C@H](CSC1CC(=O)N(CC)C1=O)NC(=O)[C@H](CC(N)=O)NC(=O)[C@H](CCCCN)NC(=O)[C@H](C)NC(=O)[C@H](CCCCN)NC(=O)[C@H](C)NC(=O)[C@@H](NC(=O)[C@H](CC(N)=O)NC(=O)[C@H](Cc1ccccc1)NC(=O)[C@H](CC(C)C)NC(=O)[C@H](CC(C)C)NC(=O)[C@H](CC(N)=O)NC(=O)[C@H](CCSC)NC(=O)[C@@H](NC(=O)[C@H](CC(N)=O)NC(=O)[C@@H](NC(=O)[C@@H]1CCCN1C(=O)[C@@H](NC(=O)[C@H](CC(=O)O)NC(=O)[C@H](CC(C)C)NC(=O)[C@H](CO)NC(=O)[C@H](CC(C)C)NC(=O)[C@@H](NC(=O)[C@H](Cc1ccccc1)NC(=O)[C@H](CCCCN)NC(=O)[C@@H](N)[C@@H](C)O)[C@@H](C)O)C(C)C)[C@@H](C)O)[C@@H](C)CC)[C@@H](C)CC)C(N)=O
Log DR against h-SCP, cAMP: 0.03 log10 ratio
pA50, cAMP: 9.44 -log M

B6: Cys-variant of stresscopin peptide with N-Ethylsuccinimide (NES) reactive group, SEQ ID NO: 47 (peptide)
peptide: TKFTLSLDVPTNIMNLLFNIAKAKNLRC(Succinimide(1-Et,3-yl))QAAANAHLMAQI-NH2
modifications: N-terminus assumed
SMILES: CC[C@H](C)[C@H](NC(=O)[C@H](CCC(N)=O)NC(=O)[C@H](C)NC(=O)[C@H](CCSC)NC(=O)[C@H](CC(C)C)NC(=O)[C@H](Cc1c[nH]cn1)NC(=O)[C@H](C)NC(=O)[C@H](CC(N)=O)NC(=O)[C@H](C)NC(=O)[C@H](C)NC(=O)[C@H](C)NC(=O)[C@H](CCC(N)=O)NC(=O)[C@H](CSC1CC(=O)N(CC)C1=O)NC(=O)[C@H](CCCNC(=N)N)NC(=O)[C@H](CC(C)C)NC(=O)[C@H](CC(N)=O)NC(=O)[C@H](CCCCN)NC(=O)[C@H](C)NC(=O)[C@H](CCCCN)NC(=O)[C@H](C)NC(=O)[C@@H](NC(=O)[C@H](CC(N)=O)NC(=O)[C@H](Cc1ccccc1)NC(=O)[C@H](CC(C)C)NC(=O)[C@H](CC(C)C)NC(=O)[C@H](CC(N)=O)NC(=O)[C@H](CCSC)NC(=O)[C@@H](NC(=O)[C@H](CC(N)=O)NC(=O)[C@@H](NC(=O)[C@@H]1CCCN1C(=O)[C@@H](NC(=O)[C@H](CC(=O)O)NC(=O)[C@H](CC(C)C)NC(=O)[C@H](CO)NC(=O)[C@H](CC(C)C)NC(=O)[C@@H](NC(=O)[C@H](Cc1ccccc1)NC(=O)[C@H](CCCCN)NC(=O)[C@@H](N)[C@@H](C)O)[C@@H](C)O)C(C)C)[C@@H](C)O)[C@@H](C)CC)[C@@H](C)CC)C(N)=O
Log DR against h-SCP, cAMP: -0.03 log10 ratio
pA50, cAMP: 9.5 -log M

Second part, the binder after the results:

Log DR against h-SCP, cAMP: 0.68 log10 ratio
pA50, cAMP: 8.79 -log M
B1: Cys-variant of stresscopin peptide with N-Ethylsuccinimide (NES) reactive group, SEQ ID NO: 51 (peptide)
peptide: TKFTLSLDVPTNIMNLLFNC(Succinimide(1-Et,3-yl))AKAKNLRAQAAANAHLMAQI-NH2
modifications: N-terminus assumed
SMILES: CC[C@H](C)[C@H](NC(=O)[C@H](CCC(N)=O)NC(=O)[C@H](C)NC(=O)[C@H](CCSC)NC(=O)[C@H](CC(C)C)NC(=O)[C@H](Cc1c[nH]cn1)NC(=O)[C@H](C)NC(=O)[C@H](CC(N)=O)NC(=O)[C@H](C)NC(=O)[C@H](C)NC(=O)[C@H](C)NC(=O)[C@H](CCC(N)=O)NC(=O)[C@H](C)NC(=O)[C@H](CCCNC(=N)N)NC(=O)[C@H](CC(C)C)NC(=O)[C@H](CC(N)=O)NC(=O)[C@H](CCCCN)NC(=O)[C@H](C)NC(=O)[C@H](CCCCN)NC(=O)[C@H](C)NC(=O)[C@H](CSC1CC(=O)N(CC)C1=O)NC(=O)[C@H](CC(N)=O)NC(=O)[C@H](Cc1ccccc1)NC(=O)[C@H](CC(C)C)NC(=O)[C@H](CC(C)C)NC(=O)[C@H](CC(N)=O)NC(=O)[C@H](CCSC)NC(=O)[C@@H](NC(=O)[C@H](CC(N)=O)NC(=O)[C@@H](NC(=O)[C@@H]1CCCN1C(=O)[C@@H](NC(=O)[C@H](CC(=O)O)NC(=O)[C@H](CC(C)C)NC(=O)[C@H](CO)NC(=O)[C@H](CC(C)C)NC(=O)[C@@H](NC(=O)[C@H](Cc1ccccc1)NC(=O)[C@H](CCCCN)NC(=O)[C@@H](N)[C@@H](C)O)[C@@H](C)O)C(C)C)[C@@H](C)O)[C@@H](C)CC)C(N)=O

Log DR against h-SCP, cAMP: -0.01 log10 ratio
pA50, cAMP: 9.48 -log M
B3: Cys-variant of stresscopin peptide with N-Ethylsuccinimide (NES) reactive group, SEQ ID NO: 50 (peptide)
peptide: TKFTLSLDVPTNIMNLLFNIAKAC(Succinimide(1-Et,3-yl))NLRAQAAANAHLMAQI-NH2
modifications: N-terminus assumed
SMILES: CC[C@H](C)[C@H](NC(=O)[C@H](CCC(N)=O)NC(=O)[C@H](C)NC(=O)[C@H](CCSC)NC(=O)[C@H](CC(C)C)NC(=O)[C@H](Cc1c[nH]cn1)NC(=O)[C@H](C)NC(=O)[C@H](CC(N)=O)NC(=O)[C@H](C)NC(=O)[C@H](C)NC(=O)[C@H](C)NC(=O)[C@H](CCC(N)=O)NC(=O)[C@H](C)NC(=O)[C@H](CCCNC(=N)N)NC(=O)[C@H](CC(C)C)NC(=O)[C@H](CC(N)=O)NC(=O)[C@H](CSC1CC(=O)N(CC)C1=O)NC(=O)[C@H](C)NC(=O)[C@H](CCCCN)NC(=O)[C@H](C)NC(=O)[C@@H](NC(=O)[C@H](CC(N)=O)NC(=O)[C@H](Cc1ccccc1)NC(=O)[C@H](CC(C)C)NC(=O)[C@H](CC(C)C)NC(=O)[C@H](CC(N)=O)NC(=O)[C@H](CCSC)NC(=O)[C@@H](NC(=O)[C@H](CC(N)=O)NC(=O)[C@@H](NC(=O)[C@@H]1CCCN1C(=O)[C@@H](NC(=O)[C@H](CC(=O)O)NC(=O)[C@H](CC(C)C)NC(=O)[C@H](CO)NC(=O)[C@H](CC(C)C)NC(=O)[C@@H](NC(=O)[C@H](Cc1ccccc1)NC(=O)[C@H](CCCCN)NC(=O)[C@@H](N)[C@@H](C)O)[C@@H](C)O)C(C)C)[C@@H](C)O)[C@@H](C)CC)[C@@H](C)CC)C(N)=O

Log DR against h-SCP, cAMP: 0.05 log10 ratio
pA50, cAMP: 9.42 -log M
B4: Cys-variant of stresscopin peptide with N-Ethylsuccinimide (NES) reactive group, SEQ ID NO: 52 (peptide)
peptide: TKFTLSLDVPTNIMNLLFC(Succinimide(1-Et,3-yl))IAKAKNLRAQAAANAHLMAQI-NH2
modifications: N-terminus assumed
SMILES: CC[C@H](C)[C@H](NC(=O)[C@H](CCC(N)=O)NC(=O)[C@H](C)NC(=O)[C@H](CCSC)NC(=O)[C@H](CC(C)C)NC(=O)[C@H](Cc1c[nH]cn1)NC(=O)[C@H](C)NC(=O)[C@H](CC(N)=O)NC(=O)[C@H](C)NC(=O)[C@H](C)NC(=O)[C@H](C)NC(=O)[C@H](CCC(N)=O)NC(=O)[C@H](C)NC(=O)[C@H](CCCNC(=N)N)NC(=O)[C@H](CC(C)C)NC(=O)[C@H](CC(N)=O)NC(=O)[C@H](CCCCN)NC(=O)[C@H](C)NC(=O)[C@H](CCCCN)NC(=O)[C@H](C)NC(=O)[C@@H](NC(=O)[C@H](CSC1CC(=O)N(CC)C1=O)NC(=O)[C@H](Cc1ccccc1)NC(=O)[C@H](CC(C)C)NC(=O)[C@H](CC(C)C)NC(=O)[C@H](CC(N)=O)NC(=O)[C@H](CCSC)NC(=O)[C@@H](NC(=O)[C@H](CC(N)=O)NC(=O)[C@@H](NC(=O)[C@@H]1CCCN1C(=O)[C@@H](NC(=O)[C@H](CC(=O)O)NC(=O)[C@H](CC(C)C)NC(=O)[C@H](CO)NC(=O)[C@H](CC(C)C)NC(=O)[C@@H](NC(=O)[C@H](Cc1ccccc1)NC(=O)[C@H](CCCCN)NC(=O)[C@@H](N)[C@@H](C)O)[C@@H](C)O)C(C)C)[C@@H](C)O)[C@@H](C)CC)[C@@H](C)CC)C(N)=O

Log DR against h-SCP, cAMP: 1.9 log10 ratio
pA50, cAMP: 7.84 -log M
B7: Pegylated Cys-variant CRHR2 peptide agonist (NES-PEG MW80000 & BRANCHED), SEQ ID NO: 101 (peptide)
peptide: TKFTLSLDVPTNIMNLLFNIAKAKNLRCQAAANAHLMAQI
modifications: NES-PEG MW80000, branched, on Cys 28; C-terminal amide
